Liquid beta gal assay value and fold β-galactosidase activity against the controls data for two substances are collected here from paper PMC7089075.

The target in experiment [1] is N (two-hybrid positive control, pAS2 N and pGADT7 N). The experiment can be described thus: two-hybrid.
The target of experiment [2] is Salmo salar Mov10 (SsMov10) (Salmo salar). The experiment can be described thus: two-hybrid.

In experiment [1], “N (two-hybrid positive control, pAS2 N and pGADT7 N) (natural protein)” returned a liquid beta gal assay value of 1.28.
In turn, “infectious salmon anaemia virus (ISAV) segment 8 open reading frame 2 protein (s8ORF2) (natural protein)” yielded a fold β-galactosidase activity against the controls in experiment [2] of 5 fold.
